Data on 1 substance can be found in patent US20200078470A1.

For this experiment, the target named is M6P receptor (M6PR). The experiment is described as follows: SPR (BIACORE T200), M6PR amine-coupled on CM5 chip, conjugate 200 nM to 12.5 nM, 1:1 Langmuir model. Background: SPR reads the build-up and loss of mass on a sensor chip optically.

In turn, “imiglucerase long-acting conjugate (from UniProt P04062 40-536; P01861 107-327)” came in with an M6PR Binding Affinity (relative to imiglucerase = 100%) of 22%.
